The values below come from paper PMC4728371 (Genome Research, 2016).

The data set concerns the molecule itself. Kind of data set: SEC-MALS. (Size exclusion chromatography separates by hydrodynamic size, large species first.)

B1: ZAK LZ-SAM (residues 286-410), purified (domain or fragment, human, UniProt Q9NYL2-1 286-410, looked up)
chain: EIEATLERLKKLERDLSFKEQELKERERRLKMWEQKLTEQSNTPLLPSFEIGAWTEDDVYCWVQQLVRKGDSSAEMSVYASLFKENNITGKRLLLLEEEDLKDMGIVSKGHIIHFKSAIEKLTHD
As a reminder, the stoichiometry N is the number of molecules, sites or subunits per partner or assembly. Regarding B1, the “stoichiometry N” value was 2.
